In the supplement of paper PMC12338614:
± gives the uncertainty stated by the source.

B1: library; numbered along this chain (parent)
chain: MEVVDPQQLGMFTEGELMSVGMDTFIHRIDSTEVIYQPRRKRAKLIGKYLMGDLLGEGSYGKVKEVLDSETLCRRAVKILKKKKLRRIPNGEANVKKEIQLLRRLRHKNVIQLVDVLYNEEKQKMYMVMEYCVCGMQEMLDSVPEKRFPVCQAHGYFCQLIDGLEYLHSQGIVHKDIKPGNLLLTTGGTLKISDLGVAEALHPFAADDTCRTSQGSPAFQPPEIANGLDTFSGFKVDIWSAGVTLYNITTGLYPFEGDNIYKLFENIGKGSYAIPGDCGPPLSDLLKGMLEYEPAKRFSIRQIRQHSWFRKKHPPAEAPVPIPPSPDTKDRWRSMTVVPYLEDLHGADEDEDLFDIEDDIIYTQDFTVPGQVPEEEASHNGQRRGLPKAVCMNGTEAAQLSTKSRAEGRAPNPARKACSASSKIRRLSACKQQ

Variants of: B1
Test: STK11 functional score (HeLa growth suppression), rescaled enrichment; synonymous median = 1, nonsense median = 0 (normalised score)
Conditions: with HeLa; variant type: missense
Outline: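 In HeLa, Bxb1 integrated POPCode codon-randomised libraries of codon-optimised STK11 at an AAVS1 landing pad; three regions were each transfected three times. Integrants, marked as BFP-negative and mCherry-positive, were FACS-sorted 4–5 days after electroporation and expanded for about two weeks before tiled gDNA amplicons were sequenced on NextSeq (~2 million reads per tile). Each functional score is a post/pre-selection log ratio corrected to wild type, rescaled to the synonymous and nonsense medians, and merged across codons and replicate transfections, with error estimated by bootstrapping.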

With MEVVDPQQLGMFTEGELMSVGMDTFIHRIDSTEVIYQPRRKRAKLIGKYLMGDLLGEGSYGKVKEVLDSETLCRRAVKILKKKKLRRIPNGEANVKKEIQLLRRLRHKNVIQLVDVLYNEEKQKMYMVMEYCVCGMQEMLDSVPEKRFPVCQAHGYFCQLIDGLEYLHSQGIVHKDIKPGNLLLTTGGTLKISDLGVAEALHPFAADDTCRTSQGSPAFQPPEIANGLDTFSGFKVDIWSAGVTLYNITTGLYPFEGDNNYKLFENIGKGSYAIPGDCGPPLSDLLKGMLEYEPAKRFSIRQIRQHSWFRKKHPPAEAPVPIPPSPDTKDRWRSMTVVPYLEDLHGADEDEDLFDIEDDIIYTQDFTVPGQVPEEEASHNGQRRGLPKAVCMNGTEAAQLSTKSRAEGRAPNPARKACSASSKIRRLSACKQQ [I260N] as the variant, how does the STK11 functional score read?
The STK11 functional score was 1.67 ± 0.52.

How did the STK11 functional score turn out when MEVVDPQQLGMFTEGELMSVGMDTFIHRIDSTEVIYQPRRKRAKLIGKYLMGDLLGEGSYGKVKEVLDSETLCRRAVKILKKKKLRRIPNGEANVKKEIQLLRRLRHKNVIQLVDVLYNEEKQKMYMVMEYCVCGMQEMLDSVPEKRFPVCQAHGYFCQLIDGLEYLHSQGIVHKDIKPGNLLLTTGGTLKISDLGVAEALHPFAADDTCRTSQGSPAFQPPEIANGLDTFSGFKVDIWSAGVTLYNITTGLYPFEGDNAYKLFENIGKGSYAIPGDCGPPLSDLLKGMLEYEPAKRFSIRQIRQHSWFRKKHPPAEAPVPIPPSPDTKDRWRSMTVVPYLEDLHGADEDEDLFDIEDDIIYTQDFTVPGQVPEEEASHNGQRRGLPKAVCMNGTEAAQLSTKSRAEGRAPNPARKACSASSKIRRLSACKQQ [I260A] was run?
Its STK11 functional score is 0.468 ± 0.26.

Which STK11 functional score does the source give for MEVVDPQQLGMFTEGELMSVGMDTFIHRIDSTEVIYQPRRKRAKLIGKYLMGDLLGEGSYGKVKEVLDSETLCRRAVKILKKKKLRRIPNGEANVKKEIQLLRRLRHKNVIQLVDVLYNEEKQKMYMVMEYCVCGMQEMLDSVPEKRFPVCQAHGYFCQLIDGLEYLHSQGIVHKDIKPGNLLLTTGGTLKISDLGVAEALHPFAADDTCRTSQGSPAFQPPEIANGLDTFSGFKVDIWSAGVTLYNITTGLYPFEGDNLYKLFENIGKGSYAIPGDCGPPLSDLLKGMLEYEPAKRFSIRQIRQHSWFRKKHPPAEAPVPIPPSPDTKDRWRSMTVVPYLEDLHGADEDEDLFDIEDDIIYTQDFTVPGQVPEEEASHNGQRRGLPKAVCMNGTEAAQLSTKSRAEGRAPNPARKACSASSKIRRLSACKQQ [I260L] here?
Its STK11 functional score is 1.28 ± 0.27.

Which STK11 functional score does the source give for MEVVDPQQLGMFTEGELMSVGMDTFIHRIDSTEVIYQPRRKRAKLIGKYLMGDLLGEGSYGKVKEVLDSETLCRRAVKILKKKKLRRIPNGEANVKKEIQLLRRLRHKNVIQLVDVLYNEEKQKMYMVMEYCVCGMQEMLDSVPEKRFPVCQAHGYFCQLIDGLEYLHSQGIVHKDIKPGNLLLTTGGTLKISDLGVAEALHPFAADDTCRTSQGSPAFQPPEIANGLDTFSGFKVDIWSAGVTLYNITTGLYPFEGDNRYKLFENIGKGSYAIPGDCGPPLSDLLKGMLEYEPAKRFSIRQIRQHSWFRKKHPPAEAPVPIPPSPDTKDRWRSMTVVPYLEDLHGADEDEDLFDIEDDIIYTQDFTVPGQVPEEEASHNGQRRGLPKAVCMNGTEAAQLSTKSRAEGRAPNPARKACSASSKIRRLSACKQQ [I260R] here?
Its STK11 functional score is 1.66 ± 0.16.

How did the STK11 functional score turn out when MEVVDPQQLGMFTEGELMSVGMDTFIHRIDSTEVIYQPRRKRAKLIGKYLMGDLLGEGSYGKVKEVLDSETLCRRAVKILKKKKLRRIPNGEANVKKEIQLLRRLRHKNVIQLVDVLYNEEKQKMYMVMEYCVCGMQEMLDSVPEKRFPVCQAHGYFCQLIDGLEYLHSQGIVHKDIKPGNLLLTTGGTLKISDLGVAEALHPFAADDTCRTSQGSPAFQPPEIANGLDTFSGFKVDIWSAGVTLYNITTGLYPFEGDNDYKLFENIGKGSYAIPGDCGPPLSDLLKGMLEYEPAKRFSIRQIRQHSWFRKKHPPAEAPVPIPPSPDTKDRWRSMTVVPYLEDLHGADEDEDLFDIEDDIIYTQDFTVPGQVPEEEASHNGQRRGLPKAVCMNGTEAAQLSTKSRAEGRAPNPARKACSASSKIRRLSACKQQ [I260D] was run?
The STK11 functional score was 1.16 ± 0.21.

MEVVDPQQLGMFTEGELMSVGMDTFIHRIDSTEVIYQPRRKRAKLIGKYLMGDLLGEGSYGKVKEVLDSETLCRRAVKILKKKKLRRIPNGEANVKKEIQLLRRLRHKNVIQLVDVLYNEEKQKMYMVMEYCVCGMQEMLDSVPEKRFPVCQAHGYFCQLIDGLEYLHSQGIVHKDIKPGNLLLTTGGTLKISDLGVAEALHPFAADDTCRTSQGSPAFQPPEIANGLDTFSGFKVDIWSAGVTLYNITTGLYPFEGDNEYKLFENIGKGSYAIPGDCGPPLSDLLKGMLEYEPAKRFSIRQIRQHSWFRKKHPPAEAPVPIPPSPDTKDRWRSMTVVPYLEDLHGADEDEDLFDIEDDIIYTQDFTVPGQVPEEEASHNGQRRGLPKAVCMNGTEAAQLSTKSRAEGRAPNPARKACSASSKIRRLSACKQQ [I260E] was tested. Which STK11 functional score did it give?
The STK11 functional score was -0.179 ± 0.42.

How did the STK11 functional score turn out when MEVVDPQQLGMFTEGELMSVGMDTFIHRIDSTEVIYQPRRKRAKLIGKYLMGDLLGEGSYGKVKEVLDSETLCRRAVKILKKKKLRRIPNGEANVKKEIQLLRRLRHKNVIQLVDVLYNEEKQKMYMVMEYCVCGMQEMLDSVPEKRFPVCQAHGYFCQLIDGLEYLHSQGIVHKDIKPGNLLLTTGGTLKISDLGVAEALHPFAADDTCRTSQGSPAFQPPEIANGLDTFSGFKVDIWSAGVTLYNITTGLYPFEGDNGYKLFENIGKGSYAIPGDCGPPLSDLLKGMLEYEPAKRFSIRQIRQHSWFRKKHPPAEAPVPIPPSPDTKDRWRSMTVVPYLEDLHGADEDEDLFDIEDDIIYTQDFTVPGQVPEEEASHNGQRRGLPKAVCMNGTEAAQLSTKSRAEGRAPNPARKACSASSKIRRLSACKQQ [I260G] was run?
Its STK11 functional score is 1.1 ± 0.25.
